Assay [1] has as its target 2F5 (broadly neutralizing human monoclonal antibody to the gp41 MPR). The assay can be described thus: cell-based or functional assay.
The target is the same in assay [2]. Put plainly: competition ELISA, peptide serially diluted with 1 ug/ml 2F5 on NE3-captured HBsAg-MPR particles. (An ELISA detects its analyte on a solid surface through an enzyme-linked reagent.)

In assay [1], “HBsAg-MPR particles (HBsAg with the HIV-1 gp41 membrane proximal region at the C-terminus)” came in with a neutralization activity of 2F5 adsorbed out, SF162.LS virus (TZM-B1 cells, luciferase) of 21% and a neutralization activity of 2F5 adsorbed out, YU2.5G3 virus (TZM-B1 cells, luciferase) of 10%.

B1: 16-mer peptide harboring the 2F5 epitope (…) (peptide)
peptide: NEQELLELDKWASLWN
With B1, the fold enhancement of 2F5 binding to HBsAg-MPR particle in assay [2] was 2 fold.

(Values after patent US20080267989A1.)
